{"source": "paper PMC10876425", "key": {"[1]": {"molecular_target": "Light-harvesting 2 (LH2) complex from Rhodobacter sphaeroides (Rhodobacter sphaeroides)", "assay": "FRET or BRET; fluorescence lifetime microscopy (TCSPC) of LH2 emission at 857 ± 3 nm after excitation at 485 nm; intact DOPC proteoliposomes (LH2 only, 2:1, 1:1, 0.5:1 LH2:RC-LH1); E = 1 - τDA/τD; values are averages for the whole system"}, "[2]": {"molecular_target": "Reaction-centre light-harvesting 1 (RC-LH1) complex from Rhodobacter sphaeroides, carotenoid-less (from the ΔcrtB strain) (Rhodobacter sphaeroides) (UniProt P0C0Y8)", "assay": "FRET or BRET; fluorescence lifetime microscopy (TCSPC) of LH2 emission at 857 ± 3 nm after excitation at 485 nm; intact DOPC proteoliposomes (LH2 only, 2:1, 1:1, 0.5:1 LH2:RC-LH1); E = 1 - τDA/τD; values are averages for the whole system"}}, "data": [{"substance": "Light-harvesting 2 (LH2) complex from Rhodobacter sphaeroides", "values": [{"measurement": "LH2 fluorescence lifetime in LH2-only proteoliposomes", "setting": "[1]", "value": 0.72, "unit": "ns"}, {"measurement": "LH2 fluorescence lifetime in proteoliposomes (0.5:1 LH2:RC-LH1)", "setting": "[2]", "value": 0.37, "unit": "ns"}, {"measurement": "LH2 fluorescence lifetime in proteoliposomes (1:1 LH2:RC-LH1)", "setting": "[2]", "value": 0.35, "unit": "ns"}, {"measurement": "LH2 fluorescence lifetime in proteoliposomes (2:1 LH2:RC-LH1)", "setting": "[2]", "value": 0.43, "unit": "ns"}, {"measurement": "LH2→RC-LH1 energy transfer efficiency (0.5:1 LH2:RC-LH1)", "setting": "[2]", "value": 49, "unit": "%"}, {"measurement": "LH2→RC-LH1 energy transfer efficiency (1:1 LH2:RC-LH1)", "setting": "[2]", "value": 51, "unit": "%"}, {"measurement": "LH2→RC-LH1 energy transfer efficiency (2:1 LH2:RC-LH1)", "setting": "[2]", "value": 40, "unit": "%"}]}]}
